B1: Mycobacterium smegmatis trehalose synthase (TreS) (enzyme, M. smegmatis, UniProt A0R6E0 1-593, looked up)
chain: MEEHTQGSHVEAGIVEHPNAEDFGHARTLPTDTNWFKHAVFYEVLVRAFYDSNADGIGDLRGLTEKLDYIKWLGVDCLWLPPFYDSPLRDGGYDIRDFYKVLPEFGTVDDFVTLLDAAHRRGIRIITDLVMNHTSDQHEWFQESRHNPDGPYGDFYVWSDTSDRYPDARIIFVDTEESNWTFDPVRRQFYWHRFFSHQPDLNYDNPAVQEAMLDVLRFWLDLGIDGFRLDAVPYLFEREGTNCENLPETHAFLKRCRKAIDDEYPGRVLLAEANQWPADVVAYFGDPDTGGDECHMAFHFPLMPRIFMAVRRESRFPISEILAQTPPIPDTAQWGIFLRNHDELTLEMVTDEERDYMYAEYAKDPRMKANVGIRRRLAPLLENDRNQIELFTALLLSLPGSPVLYYGDEIGMGDIIWLGDRDSVRTPMQWTPDRNAGFSKATPGRLYLPPNQDAVYGYHSVNVEAQLDSSSSLLNWTRNMLAVRSRHDAFAVGTFRELGGSNPSVLAYIREVTRQQGDGGAKTDAVLCVNNLSRFPQPIELNLQQWAGYIPVEMTGYVEFPSIGQLPYLLTLPGHGFYWFQLREPDPEPGAQQ
notes: Trehalose synthase TreS of M. smegmatis, locus MSMEG_6515, cloned from genomic DNA into NdeI/HindIII of pET28a; the printed primers run from the start codon to the stop codon; calculated tetramer mass 272,000 Da; also called Msm TreS; MSMEG_6515; source: E. coli BL21 (DE3), purified (Ni-NTA, HiTrap Q, Sephacryl S-300HR)

Columns and labels:
[1] = target: the molecule itself; test: AUC; sedimentation equilibrium, 50 mM sodium phosphate pH 6.5, 300 mM NaCl, 10% glycerol, 4 °C; 8000, 9000, 10,000 rpm; TreS alone at 6, 4, 2 μM, 1:1 mixture at 3.75, 2.5, 1.25 μM; single-species model
SEC = target: the molecule itself; test: SEC
[2] = target: T1, Mycobacterium tuberculosis maltokinase (Pep2) (M. tuberculosis, UniProt O07177); test: SEC; conditions: both partners purified
T1 construct: also called Mtb Pep2; MtPep2

[3] = target: B1; test: crystal structure; vapor diffusion of mixtures of M. smegmatis TreS and Pep2 at molar ratios 1:1 to 1:2; 9-10% PEG 8000, 4% glycerol, 200 mM MgCl2, 0.1 M Tris-HCl pH 6.7-7.0; 3.6 Å; conditions: both partners purified
[4] = target: B1; test: ITC; Pep2 (500 μM in the syringe) titrated into TreS (75 μM monomer); 50 mM sodium phosphate pH 8.5, 300 mM NaCl, 10% glycerol, 25 °C; conditions: both partners purified
[5] = target: B1; test: ITC; Pep2 (500 μM in the syringe) titrated into TreS (75 μM monomer); 50 mM sodium phosphate pH 7.5, 300 mM NaCl, 10% glycerol, 25 °C; conditions: both partners purified
[6] = target: B1; test: AUC; sedimentation equilibrium, 50 mM sodium phosphate pH 6.5, 300 mM NaCl, 10% glycerol, 4 °C; 8000, 9000, 10,000 rpm; TreS alone at 6, 4, 2 μM, 1:1 mixture at 3.75, 2.5, 1.25 μM; single-species model; conditions: both partners purified
[7] = target: B1; test: ITC; Pep2 (500 μM in the syringe) titrated into TreS (75 μM monomer); 50 mM sodium phosphate pH 6.5, 300 mM NaCl, 10% glycerol, 25 °C; conditions: both partners purified
[8] = target: T2, Mycobacterium smegmatis trehalose synthase (TreS) (M. smegmatis, UniProt A0R6E0 1-593); test: ITC; Pep2 titrated to 75 uM TreS in the sample chamber, up to a molar ratio [Pep2]/[TreS] of about 1.5; pH 6.5; 400 mM NaCl; 298 K; conditions: both partners purified
T2 construct: Trehalose synthase TreS of M. smegmatis (MSMEG_6515), cloned from genomic DNA with primers from the start codon to the stop codon; concentrations in the ITC count on the monomer; also called Msm TreS; MsTreS; source: E. coli BL21 (DE3), purified (Ni-NTA, HiTrap Q, Sephacryl S-300HR)
T2 sequence (looked up): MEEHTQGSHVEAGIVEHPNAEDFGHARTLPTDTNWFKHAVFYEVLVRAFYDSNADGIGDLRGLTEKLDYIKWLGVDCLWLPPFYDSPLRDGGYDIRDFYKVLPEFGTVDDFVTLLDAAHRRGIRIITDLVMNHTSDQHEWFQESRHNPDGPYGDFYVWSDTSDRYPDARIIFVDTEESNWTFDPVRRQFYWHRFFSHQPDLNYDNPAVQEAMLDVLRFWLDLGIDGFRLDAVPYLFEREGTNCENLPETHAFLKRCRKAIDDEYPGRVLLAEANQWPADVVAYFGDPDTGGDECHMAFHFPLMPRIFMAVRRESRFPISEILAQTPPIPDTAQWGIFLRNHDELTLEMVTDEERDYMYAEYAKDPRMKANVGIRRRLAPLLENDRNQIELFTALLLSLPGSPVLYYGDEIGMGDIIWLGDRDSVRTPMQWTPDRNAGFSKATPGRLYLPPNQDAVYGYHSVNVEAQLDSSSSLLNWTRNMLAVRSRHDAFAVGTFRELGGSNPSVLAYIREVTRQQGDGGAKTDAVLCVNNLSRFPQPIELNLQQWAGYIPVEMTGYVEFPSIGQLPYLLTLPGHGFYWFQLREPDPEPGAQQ

[9] = target: T2, Mycobacterium smegmatis trehalose …; test: ITC; Pep2 titrated to 75 uM TreS in the sample chamber, up to a molar ratio [Pep2]/[TreS] of about 1.5; pH 6.5; 200 mM NaCl; 298 K; conditions: both partners purified
[10] = target: T2, Mycobacterium smegmatis trehalose …; test: ITC; Pep2 titrated to 75 uM TreS in the sample chamber, up to a molar ratio [Pep2]/[TreS] of about 1.5; pH 6.5; 300 mM NaCl; 298 K; conditions: both partners purified
[11] = target: B1; test: ITC; Pep2 (500 μM in the syringe) titrated into TreS (75 μM monomer); 50 mM sodium phosphate pH 6.5, 300 mM NaCl, 10% glycerol, 25 °C; conditions: both partners purified; remark: listed apart in the source

B1
stoichiometry N [1]: 4

B2: Mycobacterium tuberculosis trehalose synthase (TreS), wild type (enzyme)
chain: MNEAEHSVEHPPVQGSHVEGGVVEHPDAKDFGSAAALPADPTWFKHAVFYEVLVRAFFDASADGSGDLRGLIDRLDYLQWLGIDCIWLPPFYDSPLRDGGYDIRDFYKVLPEFGTVDDFVALVDAAHRRGIRIITDLVMNHTSESHPWFQESRRDPDGPYGDYYVWSDTSERYTDARIIFVDTEESNWSFDPVRRQFYWHRFFSHQPDLNYDNPAVQEAMIDVIRFWLGLGIDGFRLDAVPYLFEREGTNCENLPETHAFLKRVRKVVDDEFPGRVLLAEANQWPGDVVEYFGDPNTGGDECHMAFHFPLMPRIFMAVRRESRFPISEIIAQTPPIPDMAQWGIFLRNHDELTLEMVTDEERDYMYAEYAKDPRMKANVGIRRRLAPLLDNDRNQIELFTALLLSLPGSPVLYYGDEIGMGDVIWLGDRDGVRIPMQWTPDRNAGFSTANPGRLYLPPSQDPVYGYQAVNVEAQRDTSTSLLNFTRTMLAVRRRHPAFAVGAFQELGGSNPSVLAYVRQVAGDDGDTVLCVNNLSRFPQPIELDLQQWTNYTPVELTGHVEFPRIGQVPYLLTLPGHGFYWFQLTTHEVGAPPTCGGERRL
notes: also called Mtb TreS; WT Mtb TreS
stoichiometry N (SEC): 4
binding result [2]: binds

B3: Mycobacterium smegmatis maltokinase (Pep2) (enzyme)
chain: not shown
notes: Maltokinase Pep2 of M. smegmatis, locus MSMEG_6514, 441 residues, cloned from genomic DNA into NdeI/HindIII of pET28a; the printed primers run from the start codon to the stop codon; Monomer by size exclusion; calculated mass 48,800 Da; also called Msm Pep2; MsPep2; source: E. coli BL21 (DE3), purified (Ni-NTA, HiTrap Q, Sephacryl S-300HR)
stoichiometry N [3]: 1 Pep2 per TreS protomer
Ka [4]: 28700 M⁻¹
Kd [4]: 34.8 µM
dH [4]: -22.3 kcal/mol
stoichiometry N [4]: 0.22 ± 0.04
Ka [5]: 160000 M⁻¹
Kd [5]: 6.25 µM
dH [5]: -18.7 kcal/mol
stoichiometry N [5]: 0.459 ± 0.008
stoichiometry N [6]: 2 copies of Pep2 per TreS tetramer
Ka [7]: 287000 M⁻¹
Kd [7]: 3.48 µM
dH [7]: -31.3 kcal/mol
stoichiometry N [7]: 0.574 ± 0.007

B4: Mycobacterium smegmatis maltokinase (Pep2) (enzyme)
chain: not shown
notes: Maltokinase Pep2 of M. smegmatis (MSMEG_6514); 441 residues; cloned with primers from the start codon to the stop codon; also called Msm Pep2; MsPep2; source: E. coli BL21 (DE3), purified (Ni-NTA, HiTrap Q, Sephacryl S-300HR)
Ka [8]: 210000 M⁻¹
Kd [8]: 4.8 µM
stoichiometry N [8]: 0.58 ± 0.01
Ka [9]: 210000 M⁻¹
Kd [9]: 4.8 µM
stoichiometry N [9]: 0.79 ± 0.015
Ka [10]: 222000 M⁻¹
Kd [10]: 4.5 µM
stoichiometry N [10]: 0.54 ± 0.01

B5: N-terminally truncated M. smegmatis Pep2 (Pep2-Δ70) (domain or fragment)
chain: not shown
notes: Maltokinase Pep2 of M. smegmatis (MSMEG_6514) with a 70-amino acid N-terminal truncation; the whole protein has 441 residues; The first residue 71 follows from the stated 70-residue truncation; also called Msm Pep2-Δ70; source: E. coli BL21 (DE3), purified (as WT Pep2, NaCl 300 mM before ion exchange)
Kd [11]: 28.6 µM
Ka [7]: 35000 M⁻¹
Kd [7]: 26.8 µM
dH [7]: -17.9 kcal/mol
stoichiometry N [7]: 0.681 ± 0.004
